Data: US20030158083A1, “Method of effecting angiogenesis by modulating the function of a novel endothelia phosphatase” (The Procter & Gamble Company, priority 2002, published 2003)

Columns and labels:
[1] = Phosphatase activity with fluorogenic substrate DiFMUP; type: biochemical
Method: Purified, recombinant KAPh phosphatase domain (amino acids 83-464 SEQ ID NO 4) (100 μg/mL) and full-length PTEN (amino acids 1-403) (100 μg/mL) were each mixed with a fluorogenic phosphatase substrate 6,8-difluoro-4-methylumbelliferyl phosphate (DiFMUP) (Molecular Probes, Eugene, Oreg.) at a final concentration of a 100 μM in assay buffer (10 mM sodium acetate, pH 6.0, 150 mM NaCl, 5 mM DTT). Following incubation at ambient temperature for 15 or 60 min., the fluorescence intensity of the 6,8-difluoro-4-methylumbelliferone (DiFMU) product was measured in triplicate and used as an assessment of phosphatase activity. A Victor 5 microplate reader from Wallac (Turku, Finland) was used to read the fluorescence intensity from 384-well microplates (Corning Inc., Corning, N.Y.).

[2] = Peptide phosphatase assay (BIOMOL green); type: biochemical; settings: any peptide substrates examined; data not shown
[3] = target: T1, 6xHis-tagged KAPh full-length protein (expressed in HEK 293 cells from pcDNA4/HisMax) (Homo sapiens, UniProt Q63HR2 26-1409, limits assumed); assay: GST pull-down from HEK 293 lysate, anti-HisG blot
T1 construct: Used as HEK 293 cell lysate; also called full-length KAPh; hexahistidine-tagged full-length KAPh
T1 sequence: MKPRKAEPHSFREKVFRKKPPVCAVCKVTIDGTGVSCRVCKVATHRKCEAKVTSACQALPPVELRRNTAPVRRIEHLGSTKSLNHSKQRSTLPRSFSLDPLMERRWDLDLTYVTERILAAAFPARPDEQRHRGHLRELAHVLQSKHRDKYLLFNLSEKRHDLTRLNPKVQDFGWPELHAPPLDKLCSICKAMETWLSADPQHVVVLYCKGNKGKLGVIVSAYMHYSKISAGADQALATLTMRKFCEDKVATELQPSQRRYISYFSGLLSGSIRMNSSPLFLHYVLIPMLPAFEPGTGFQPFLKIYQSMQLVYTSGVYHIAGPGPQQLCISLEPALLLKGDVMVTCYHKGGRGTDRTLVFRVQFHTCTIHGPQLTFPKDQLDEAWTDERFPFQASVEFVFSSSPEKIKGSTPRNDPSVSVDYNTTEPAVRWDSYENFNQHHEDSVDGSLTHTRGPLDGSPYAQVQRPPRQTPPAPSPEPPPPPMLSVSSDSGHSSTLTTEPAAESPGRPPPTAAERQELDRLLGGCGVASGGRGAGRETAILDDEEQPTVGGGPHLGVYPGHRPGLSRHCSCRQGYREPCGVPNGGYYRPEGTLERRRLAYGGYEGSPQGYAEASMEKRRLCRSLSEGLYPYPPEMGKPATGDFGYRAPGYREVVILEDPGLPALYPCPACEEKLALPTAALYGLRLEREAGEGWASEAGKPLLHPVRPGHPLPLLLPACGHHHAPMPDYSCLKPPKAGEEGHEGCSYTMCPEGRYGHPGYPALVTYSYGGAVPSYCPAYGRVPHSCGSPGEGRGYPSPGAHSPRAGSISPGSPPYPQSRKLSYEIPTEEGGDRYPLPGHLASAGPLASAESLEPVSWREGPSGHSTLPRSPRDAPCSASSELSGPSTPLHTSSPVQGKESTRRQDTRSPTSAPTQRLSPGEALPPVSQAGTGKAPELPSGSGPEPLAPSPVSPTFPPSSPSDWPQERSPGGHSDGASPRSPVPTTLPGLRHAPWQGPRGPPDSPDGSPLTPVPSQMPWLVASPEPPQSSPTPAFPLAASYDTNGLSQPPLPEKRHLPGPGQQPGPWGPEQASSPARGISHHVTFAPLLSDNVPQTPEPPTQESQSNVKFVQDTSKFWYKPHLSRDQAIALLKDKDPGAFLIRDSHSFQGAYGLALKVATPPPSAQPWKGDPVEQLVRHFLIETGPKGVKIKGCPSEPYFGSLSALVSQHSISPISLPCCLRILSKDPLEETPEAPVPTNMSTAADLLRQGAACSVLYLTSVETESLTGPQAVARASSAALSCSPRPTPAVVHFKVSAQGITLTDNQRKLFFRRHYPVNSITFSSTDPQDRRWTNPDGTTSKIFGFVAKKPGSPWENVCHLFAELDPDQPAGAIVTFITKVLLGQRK

[4] = target: T2, GST (baculovirus-expressed glutathione S-transferase alone) (UniProt P08515 1-218 = GST); assay: GST pull-down from HEK 293 lysate, anti-HisG blot
T2 construct: Control; also called GST alone
T2 sequence (P08515 whole entry): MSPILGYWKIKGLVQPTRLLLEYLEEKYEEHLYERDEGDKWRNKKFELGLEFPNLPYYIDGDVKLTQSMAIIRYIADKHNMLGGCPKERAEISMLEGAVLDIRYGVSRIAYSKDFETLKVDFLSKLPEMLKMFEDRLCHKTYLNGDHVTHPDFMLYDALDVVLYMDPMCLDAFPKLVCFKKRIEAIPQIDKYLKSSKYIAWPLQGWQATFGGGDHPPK

Q: Which “fluorescent product (DiFMU) generated, fold over buffer control” value ([1]; 100 μg/mL protein, 100 μM DiFMUP, pH 6.0, ambient temperature, 60 min incubation) does the source give for “PTEN: full-length PTEN (amino acids 1-403), tumor suppressor with phosphatase activity, used as comparator [reference compound]” here?
A: 6 fold

Q: And the “phosphatase activity using peptide substrates” value [2]?
A: unable to detect significant, reproducible phosphatase activity

B1: GST Tie2 wild-type (GST fusion of the intracellular domain of human Tie2/TEK) (receptor, UniProt Q02763 770-1124, looked up)
chain: LQLKRANVQRRMAQAFQNVREEPAVQFNSGTLALNRKVKNNPDPTIYPVLDWNDIKFQDVIGEGNFGQVLKARIKKDGLRMDAAIKRMKEYASKDDHRDFAGELEVLCKLGHHPNIINLLGACEHRGYLYLAIEYAPHGNLLDFLRKSRVLETDPAFAIANSTASTLSSQQLLHFAADVARGMDYLSQKQFIHRDLAARNILVGENYVAKIADFGLSRGQEVYVKKTMGRLPVRWMAIESLNYSVYTTNSDVWSYGVLLWEIVSLGGTPYCGMTCAELYEKLPQGYRLEKPLNCDDEVYDLMRQCWREKPYERPSFAQILVSLNRMLEERKTYVNTTLYEKFTYAGIDCSAEEAA
modifications: some degree of tyrosine phosphorylation after in vitro autophosphorylation; sites not listed
notes: domain: intracellular domain; also called Tie2 kinase; not shown: glutathione S-transferase (GST) encoded by the pAcGHLT baculovirus transfer vector (Pharmingen); in-frame fusion, linker
Q: Does B1 bind [3]?
A: no binding

B2: GST Tie1 wild-type (GST fusion of the intracellular domain of human Tie1) (receptor, UniProt P35590 785-1138, looked up)
chain: CIRRSCLHRRRTFTYQSGSGEETILQFSSGTLTLTRRPKLQPEPLSYPVLEWEDITFEDLIGEGNFGQVIRAMIKKDGLKMNAAIKMLKEYASENDHRDFAGELEVLCKLGHHPNIINLLGACKNRGYLYIAIEYAPYGNLLDFLRKSRVLETDPAFAREHGTASTLSSRQLLRFASDAANGMQYLSEKQFIHRDLAARNVLVGENLASKIADFGLSRGEEVYVKKTMGRLPVRWMAIESLNYSVYTTKSDVWSFGVLLWEIVSLGGTPYCGMTCAELYEKLPQGYRMEQPRNCDDEVYELMRQCWRDRPYERPPFAQIALQLGRMLEARKAYVNMSLFENFTYAGIDATAEEA
modifications: some degree of tyrosine phosphorylation after in vitro autophosphorylation; sites not listed
notes: domain: intracellular domain; also called Tie1 kinase; not shown: glutathione S-transferase (GST) encoded by the pAcGHLT baculovirus transfer vector (Pharmingen); in-frame fusion, linker
Q: Does B2 bind [3]?
A: no binding

B3: KAPh phosphatase domain: purified, recombinant KAPh phosphatase domain (amino acids 83-464 SEQ ID NO 4) (protein, listed as Homo sapiens)
chain: LNHSKQRSTLPRSFSLDPLMERRWDLDLTYVTERILAAAFPARPDEQRHRGHLRELAHVLQSKHRDKYLLFNLSEKRHDLTRLNPKVQDFGWPELHAPPLDKLCSICKAMETWLSADPQHVVVLYCKGNKGKLGVIVSAYMHYSKISAGADQALATLTMRKFCEDKVATELQPSQRRYISYFSGLLSGSIRMNSSPLFLHYVLIPMLPAFEPGTGFQPFLKIYQSMQLVYTSGVYHIAGPGPQQLCISLEPALLLKGDVMVTCYHKGGRGTDRTLVFRVQFHTCTIHGPQLTFPKDQLDEAWTDERFPFQASVEFVFSSSPEKIKGSTPRNDPSVSVDYNTTEPAVRWDSYENFNQHHEDSVDGSLTHTRGPLDGSPYAQVQ
Q: Which “phosphatase activity over time” value ([1]; 15 or 60 min incubation with DiFMUP) does the source give for B3 here?
A: time-dependent increase in phosphatase activity

B4: 6xHis-tagged KAPh SH2 domain (expressed in HEK 293 cells from pcDNA4/HisMax) (other, not shown: small tags and cut ends)
chain: WYKPHLSRDQAIALLKDKDPGAFLIRDSHSFQGAYGLALKVATPPPSAQPWKGDPVEQLVRHFLIETGPKGVKIKGCPSEPYFGSLSALVSQHSISPISLPCCLRILS
notes: Used as HEK 293 cell lysate; also called hexahistidine-tagged KAPh SH2 domain; KAPh SH2 domain-containing protein fragment
Q: Does B4 bind [4]?
A: no binding
